Test results from patent US12583908B2, “Albumin protein variants, production thereof and uses of same” (Yeda Research and Development Co. Ltd., priority 2022, dated 2026).
Entries after “also recorded” stand apart in the source; their conditions may differ.

Tests used:
BsiEI = assay: DNA restriction of pET28b(+) with BsiEI in albumin-containing buffer; assay type: biochemical; details: 0.1 mg/ml albumin, 60-80° C., 15 min
Method: Samples of pET28b(+) vector (1.5 μg) were restricted by BsiEI (10U, NEB) in 15 μl reaction volumes containing the Cutsmart buffer (NEB) or a reconstituted equivalent (50 mM Potassium acetate, 20 mM Tris-acetate, Mg-acetate, pH 7.9) supplemented with 0.lmg/ml of either commercial BSA (Sigma), HSA1, BSA2, or HSA3 variants (tagless, after gel filtration and ion exchange purification) at temperatures of 60-80° C. for 15 min using a gradient PCR (SensoQuest). Samples were then supplemented with 5 μl DNA sample buffer (150 mM TrisHCl pH 7.4, 5% SDS, 50% Glycerol, 0.05% Bromophenol Blue), heated (60° C., 10 min), and resolved on a 2% agarose-TAE gel containing 0.5 μg/mL Ethidium Bromide for 1.5h at 120V.

NcoI and XhoI enzymes = assay: DNA restriction of pET29b with NcoI and XhoI in albumin-containing buffer; assay type: biochemical; details: 0.1 mg/ml albumin, overnight at 37° C.
Method: DNA Restriction. pET29b vector with 900 bp insert was restricted with NcoI and XhoI enzymes (NEB) overnight at 37° C., using the following buffers: rCutsmart buffer (NEB, contains 0.1 mg/ml rBSA), buffer 4 (NEB, identical composition to rCutsmart buffer, but no BSA), and buffer 4 supplemented with HSA1, BSA2, and HSA3 variants (tagless, after gel filtration and ion exchange purification) at 0.1 mg/ml.

[1] = Thermal stability by differential scanning calorimetry (DSC); assay type: physicochemical
Method: (§1) Thermal stability measurements. Thermal stability of BSA and HSA variants (His-tagged form) and of commercial WT HSA and BSA (Sigma-Aldrich A1653 and A7638, respectively) was measured by nanoscale differential scanning fluorimetry (nanoDSF), in Prometheus NT.48 instrument (NanoTemper). The temperature was increased from 20° C. to 95° C. at 1° C./min ramp. Thermal stability of HSA variants was also measured by differential scanning calorimetry (DCS) in VP-DSC instrument (Malvern), with heating from 20° C. to 95° C. at 1° C./min and cooling at the same rate.

[2] = Thermal stability by nanoDSF; assay type: physicochemical; details: His-tagged variants and commercial WT; 20 to 95° C. at 1° C./min
Method: as §1

HEK293T cells = assay: HEK293T cell culture with albumin variants; assay type: cell-based, human; details: 1 mg/ml albumin, medium with 5% FBS, 5 days
Method: HEK293T adherent cells were grown in DMEM supplemented with GlutaMAX, NEAA and 5% FBS (all from Gibco) at 37° C., 5% CO2. To test the viability of the cultured cells in the presence of PROSS BSA2, HSA1 and HSA3 in comparison to the commercial BSA or HSA, respectively, cells (˜3×10^3) were seeded in 24-well plate and followed each day for 5 days. All the albumin variants were added to the cells at 1 mg/ml in duplicates, and their effect was analyzed. As a control, no protein was added to the growth medium. In each time point, cells were collected and the number of total cells, live cells and % of viable cells were determined automatically using Brightfield Cell Counter DeNovix.

[3] = Crystal structure of HSA1 with warfarin, bound myristate; assay type: binding; details: no myristate added
Method: Crystallization and structure determination of HSA1 and Warfarin. Tagless HSA1 protein obtained from SUMO-HSA production was concentrated to 100 mg/ml in Tris buffer pH 7.0 and supplemented with 1 mM warfarin from 100 mM stock in DMSO. Crystals of HSA1 and warfarin were obtained using the hanging-drop vapor diffusion method with a Mosquito robot (TTP LabTech). All datasets were collected under cryogenic conditions at the European Synchrotron Radiation Facility (ESRF), Grenoble, France at beamline ID30B. The crystals were grown from 0.05 M NaCl, 10% PEG 4000 and 0.05 Tris pH=8.0. The crystals formed in the space group P1, with two monomers per asymmetric unit and diffracted to 2.0 Å resolution. The integrated reflections were scaled using the AIMLESS program (20) from the CCP4i2 program suite (21). HSA1 structure determined by molecular replacement with PHASER (22) using the structure of human serum albumin in complex with aristolochic acid (PDB code 6HSC). All steps of atomic refinement were carried out with the CCP4i2/REFMAC5 program (23) and by PHENIX.refine (24). The models were built into 2 mFobs-DFcalc, and mFobs-DFcalc maps by using the COOT program (25). The model was optimized using PDB_REDO (25, 26) and was evaluated with MOLPROBITY (27). […] Details of the refinement statistics of HSA1 and Warfarin structure are described in Table 1.

[4] = Gel filtration (size exclusion) chromatography; assay type: physicochemical
Method: At the final stage, all the variants were purified by gel filtration chromatography, using HiLoad Superdex 200 column for preps coming from large scale expression (>500 ml culture) and HiLoad Superdex 75 column for preps coming from medium scale expression (50-500 ml culture).

B1: HSA3: most highly mutated human albumin variant, 73 mutations all over the protein (Table 2) (protein)
chain: MDAHKSEVAHRFKDLGEENFKALVLIAFAQYLQKCPFEELVKMVKEVTEFAKKCVADETAENCDKSLHTLFGDKLCQVATLRETYGEMADCCAKQDPERHECFLQHKDDNPNLPRLERPEVDVMCKAFHDNEETFLNKYLYEIARRHPYFYAPELLYFAKRYKKAFTECCQAEDKAACLLPKLDALREEGKESSAKQRYKCAILQKFGERVFKAWAIARLSQRFPKAPFEEISKLVTDLTKVHKACCHGDMLECMDDRAKLAKYICENQDSISSKLKECCEKPLLERSHCIAEVENDDKPEDLPPLAADFVESKDVCKNYAEAKDVFLARFLYEYARRHPDYSVTLLLRIAKTYEDTLEKCCKAEDPHECYAKVEEEFKKLVEETQNLIKQNCELFEKLGEYYFQNALLIRYTKKMPQVPTDTLVELTRNLGKVGSKCCKLPEEKRLPCIEDYLSIVLNQLCVLHEKTPVNDRVTKCCTESLVNRRHCFSALEVDETYVPKEFNAETFTFHADLCTLSEEERQIMKQKFLVELVKHKPKATEEQLKAVMDDFTAFVEKCCKAEDPETCFAEEGSKLIAASQAALGL
modifications: Albumin Synthetic variant
BsiEI
  Restriction performance, pET28b(+) digested with BsiEI: performed equally well
NcoI and XhoI enzymes
  Restriction performance, pET29b(+) digested with NcoI and XhoI: performed equally well
[1]
  Thermal stability: stable beyond the boiling point
[1]; heating and cooling
  Reversibility of thermal unfolding: reversible temperature-dependent folding and unfolding
[1]; heating at 1° C./min
  Melting temperature (DSC): 100.5 °C
[2]
  Melting temperature nanoDSF: > 95 °C
HEK293T cells
  Effect on number of HEK293T cells: no adverse effect
  Effect on viability of HEK293T cells: no adverse effect

B2: HSA1: human serum albumin variant with 16 mutations, no surface and no binding site mutations (Table 2) (protein)
chain: MDAHKSEVAHRFKDLGEENFKALVLIAFAQYLQQCPFEDLVKMVNEVTEFAKTCVADESAENCDKSLHTLFGDKLCTVATLRETYGEMADCCAKQEPERNECFLQHKDDNPNLPRLVRPEPDVMCTAFHDNEETFLKKYLYEIARRHPYFYAPELLYFAKRYKAAFTECCQAADKAACLLPKLDELREEGKASSAKQRHKCAILQKFGERAFKAWAVARLSQRFPKAEFAEVSKLVTDLTKVHTECCHGDLLECADDRADLAKYICENQDSISSKLKECCEKPLLEKSHCIAEVENDEMPADLPSLAADFIESKDVCKNYAEAKDVFLGMFLYEYARRHPDYSVVLLLRLAKTYETTLEKCCAAADPHECYSKVFDEFKPLIEEPQNLIKQNCELFEQLGEYKFQNALLIRYTKKVPQVSTPTLVEVARNLGKVGSKCCKHPEAKRMPCAEDYLSIVLNQLCVLHEKTPVSDRVTKCCTESLVNRRPCFSALEVDETYVPKEFNAETFTFHADICTLSEEERQIKKQTALVELVKHKPKATKEQLKAVMDDFSAFVEKCCKADDKETCFAEEGKKLIAASQAALGL
modifications: Albumin Synthetic variant
BsiEI
  Restriction performance, pET28b(+) digested with BsiEI: performed equally well
NcoI and XhoI enzymes
  Restriction performance, pET29b(+) digested with NcoI and XhoI: performed equally well
[3]
  Fatty-acid (myristate) binding: indistinguishable from the wild type; also recorded: four molecules of myristate fatty acid are present in the structure
[2]
  Melting temperature nanoDSF: 86 °C
HEK293T cells
  Effect on number of HEK293T cells: no adverse effect
  Effect on viability of HEK293T cells: no adverse effect
[4]
  Oligomeric state by gel filtration: completely monomeric
